The values below come from paper PMC9267055.

The target in test [1] is GPI-APs (transferred from wildtype EL cells to ManN-treated human adipocytes) (human (endogenous in K562 EL cells)).
The target is the same in test [2]. This is another data set of the same source.

Turning to “BSA (fraction V, defatted) (from UniProt P02769 25-607) (natural protein)”, the decrease in transfer of GPI-APs from wildtype EL cells to ManN-treated human adipocytes in transwell co-culture (1 week), read by SAW sensing of acceptor PM; BSA 50 mg/mL, final dilution 1:75 in test [1] was determined as 35%.

B1: serum GPLD1 (enzyme)
chain: CGLSTHVEIGHRALEFLQLHNGRVNYRELLLEHQDAYQAGIVFPDCFYPSICKGGKFHDVSESTHWTPFLNASVHYIRENYPLPWEKDTEKLVAFLFGITSHMAADVSWHSLGLEQGFLRTMGAIDFHGSYSEAHSAGDFGGDVLSQFEFNFNYLARRWYVPVKDLLGIYEKLYGRKVITENVIVDCSHIQFLEMYGEMLAVSKLYPTYSTKSPFLVEQFQEYFLGGLDDMAFWSTNIYHLTSFMLENGTSDCNLPENPLFIACGGQQNHTQGSKMQKNDFHRNLTTSLTESVDRNINYTERGVFFSVNSWTPDSMSFIYKALERNIRTMFIGGSQLSQKHVSSPLASYFLSFPYARLGWAMTSADLNQDGHGDLVVGAPGYSRPGHIHIGRVYLIYGNDLGLPPVDLDLDKEAHRILEGFQPSGRFGSALAVLDFNVDGVPDLAVGAPSVGSEQLTYKGAVYVYFGSKQGGMSSSPNITISCQDIYCNLGWTLLAADVNGDSEPDLVIGSPFAPGGGKQKGIVAAFYSGPSLSDKEKLNVEAANWTVRGEEDFSWFGYSLHGVTVDNRTLLLVGSPTWKNASRLGHLLHIRDEKKSLGRVYGYFPPNGQSWFTISGDKAMGKLGTSLSSGHVLMNGTLKQVLLVGAPTYDDVSKVAFLTVTLHQGGATRMYALTSDAQPLLLSTFSGDRRFSRFGGVLHLSDLDDDGLDEIIMAAPLRIADVTSGLIGGEDGRVYVYNGKETTLGDMTGKCKSWITPCPEEKAQYVLISPEASSRFGSSLITVRSKAKNQVVIAAGRSSLGARLSGALHVYSLGSD
As to B1, the transfer of GPI-APs from wildtype EL cells to ManN-treated human adipocytes in transwell co-culture (1 week), read by SAW sensing of acceptor PM; GPLD1 100 mU/mL (% of serum inhibition) in test [2] is 70.
